Test system: MS2 coat protein
Experiment: apparent KD of MS2 coat protein; higher = weaker reporter binding
Conditions: Eterna round: R107
Outline: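 With or without constant ligand, designed RNA switches in 100 mM Tris-HCl pH 7.5, 80 mM KCl and 4 mM MgCl2 were titrated with SNAP-549-labelled MS2 coat protein. Concentrations went up in twofold steps from 0.7 or 1.5 nM to 3 µM. The switches had been transcribed on-chip from Illumina sequencing clusters, and apparent KD is the per-design median of normalised cluster binding-curve fits.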

[1] = input ligand: theophylline 20 uM
[2] = input ligand: theophylline 2 mM
[3] = input ligand: tryptophan 2.4 mM

| Sequence | apparent KD of MS2 coat protein (input ligand: arginine 13.2 mM) [µM] | apparent KD of MS2 coat protein (input ligand: none) [µM] | apparent KD of MS2 coat protein [1] [µM] | apparent KD of MS2 coat protein [2] [µM] | apparent KD of MS2 coat protein [3] [µM] |
| --- | --- | --- | --- | --- | --- |
| GGCUCCAGCCGAAGGAGCGCUAGAAGGUGACAUGAGGAUCACCCAUGUGUGUGAUGUGGCUAGCAGGUAGGUCGCGGAGGAGCUU [Exclusion - Arginine B (Freestyle 19)] | 0.0625 | 0.0645 | 0.108 | 0.0906 | 0.0711 |
| GGGAAAGGAGAAGAUACCAGCCGCCUCACAAGUCUACACUACAUGAGGAUCACCCAUGUGGGCCCUUGGCAGCUUGACCGCGAAA [theeternabot_exclusion_MS2_Theo_B_20] | 0.0232 | 0.0274 | 0.0477 | 0.042 | 0.0393 |
| GGGAAUGAACGUGAUACCAGAGAUCCGGUCUCCGUCAAUAUACAUGAGGAUCACCCAUGUCUCCCUUGGCAGCACCGUCAUCGGG [Exclusion Theophylline B GF 28] | 0.0143 | – | 0.0204 | – | 0.0145 |
| GGGACAUGAGGAUCACCCAUGUACCGGUCCCGAGGACCGGUACGGCCGCCACUCGAUGACCUCAUAGUCUACUUGAGCAGUAGAC [Geeson] | 0.0377 | 0.0221 | 0.143 | 0.0386 | 0.1 |
| GGGAGAUAGGCGGCCGCCACUGAUUUUCAUAUAUAUAUAACAUGAGGAUCACCCAUGUAGAUAUACAGGACCGGGCCUAUUUUUU [aaaE] | 0.0191 | – | 0.0225 | 0.0197 | – |
| GGGCAAGAGGGAAGGAGCGUCAGCUGAGUAACAUGAGGAUCACCCAUGUAGCACAUAGUGUGACAGGUAGGUCGCCCUCUGCCCU [SS-ArgB6] | 0.0126 | 0.00897 | 0.0104 | 0.00842 | 0.0125 |
| GGGCAAGAGGGAAGGAGCGUCAGCUGAGUCACAUGAGGAUCACCCAUGUCGCACAUAGUGUGACAGGUAGGUCGCCCUCUGCCCU [Zaistiqu] | 0.0743 | 0.131 | 0.158 | 0.201 | 0.133 |
| GGGCACAUGAGGAUCACCCAUGUCCAACGGCGAGGACCGGUACGGCCGCCACUCGGUAUAAGCUUCGAAAAGGAGGAUCCUGCAG [theeternabot_sameState_MS2_Trp_A_35] | 0.0204 | – | 0.0563 | 0.0477 | – |
| GGGCCCGGGCGCGAGCCCGGGCCCAUUGAUACCAGUGAAUGUGUGCGCCCUUGGCAGCGAAUCCUAACAUGAGGAUCACCCAUGU [5.E] | 0.0162 | 0.0286 | 0.117 | 0.0504 | 0.0483 |
| GGGCGCGAGACGGCCGCCACUACACAUGAGGAUCACCCAUGUAUGGCAACAUGAGGAUCUGCCAUUAGGACCGGGUCAGGGCCCA | 0.0293 | 0.0312 | 0.0534 | 0.0418 | 0.0385 |
| GGGCGCGUGGACUGGCGUGCUCCGCUCCGUCGAGGACCGGUACGGCCGCCACUCGACAUGAGGAUCACCCAUGUGUGCGCUCGCG [#1 Exclusion - Tryptophan A Attempt #18 (HarryS)] | 0.0145 | 0.021 | 0.194 | 0.0404 | 0.00736 |
| GGGUACAUCGCGGCCGCCACUCAUGUAAAUGCAUGAGGAACACCCAUGCCGAUGGAGACAUCGGAGAGGACCGGGUGAUGUACCG | 0.066 | 0.11 | 0.157 | 0.148 | 0.0937 |
| GGGUACAUCGCGGCCGCCACUGGUGUAAAUACAUGAGGAUCACCCAUGUCGAUGGAGACAUCGGGUAGGACCGGGUGAUGUACCG | 0.0198 | 0.0219 | 0.0373 | 0.0302 | 0.0243 |
| GGGUACAUCGCGGCCGCCACUUGUGUAAAUACAUGAGGAUCACCCAUGUCGAUGGAGACAUCGGCAAGGACCGGGUGAUGUACCG | 0.107 | 0.13 | 0.172 | 0.146 | 0.0152 |
| GGGUACAUCGCGGCCGCCACUUUUGUAAAUACAUGAGGAUCACCCAUGUCGAUGGAGACAUCGGUGAGGACCGGGUGAUGUACCG | 0.196 | 0.624 | 0.523 | 0.721 | 0.295 |
| GGGUCCGUCGGAAGGAGCGACAUGAGGAUCACCCAUGUCUCCCGUUAUGGGAGUUCUUUAGGUCAGGUAGGUCGCCGGCGGGUCC [#1 Exclusion - Arginine B Attempt #13 (Inspired by Omei)] | 0.065 | 0.141 | 0.196 | 0.164 | 0.119 |
| GGUAUUGGAACAGAUACCAGUAUCUGUUGAUCCUACAUGAGGAUCACCCAUGUUAGAAAGUACCCUUGGCAGCUGUAAUAAUGCC [Theo B Ex t1] | 0.0527 | – | 0.0766 | – | 0.0494 |
| GGUCAGCAGUCGGCCGCCACUAGUAUACAUGAGGAUCACCCAUGUCCCUUGCGCCUCACCGAUUUUAGGACCGGGACACUGCCUG [theeternabot_exclusion_MS2_Trp_B_9] | 0.0251 | – | 0.042 | 0.0402 | – |
| GGUCUCUGGAGCGAUACCAGCUUAAUCGUACUGGCCAGGUACAUGAGGAUCACCCAUGUAAGCCCUUGGCAGCGCUCCAGAGACC [#1 Exclusion - Theophylline B Attempt #11 (HarryS)] | 0.00602 | 0.0129 | 0.0164 | 0.0144 | 0.0105 |
| GGUCUCUGGAGCGAUACCAGCUUGAGUGUACUGGCCAGGUACAUGAGGAUCACCCAUGUAAGCCCUUGGCAGCGCUGCAGAGACC [#1 Exclusion - Theophylline B Attempt #16 (HarryS)] | 0.00975 | – | 0.015 | – | 0.0112 |

| Sequence | apparent KD of MS2 coat protein (input ligand: arginine 13.2 mM) [µM] | apparent KD of MS2 coat protein (input ligand: none) [µM] | apparent KD of MS2 coat protein [1] [µM] | apparent KD of MS2 coat protein [2] [µM] | apparent KD of MS2 coat protein [3] [µM] |
| --- | --- | --- | --- | --- | --- |
| GGUGGCUGGACUGAUACCAGCCACCACCGAUAGACCACAUGAGGAUCACCCAUGUUGGGUGGCCCUUGGCAGCAGUCUAGCUGCC [#1 Same State - Theophylline B Attempt #11 (HarryS)] | 0.231 | – | 0.727 | – | 0.441 |
| GGUUACUCUACGGCCGCCACUGAUUAUUUAUAAUCCUGUACAUAAACAUGAGGAUCACCCAUGUACAGGACCGGGUAGUGUAACC [Tryptophan B 11] | 0.0299 | – | 0.0377 | 0.0335 | – |
| GGUUGAAACUGAAGGAGCGAGAUGACAACAUUGGGUCUAACAUGAGGAUCACCCAUGUAAUCUCAGGUAGGUCGCAGUGACCAAA [Exclusion Arginine B GF 14] | 0.0381 | 0.0502 | 0.0415 | 0.0467 | 0.0431 |
| GGUUUAUAUAUAUAUAUAUAGAUUACUGAAGGAGCGGGAAAUAACCCAGGUAGGUCGCAGAGAUCCACAUGAGGAUCACCCAUGU [!0.E] | 0.0371 | 0.0402 | 0.0553 | 0.0543 | 0.0368 |
| GUAAAUGUGACGGAUACCAGCGUGUUGUAGAACAUGAGGAUCACCCAUGUAGUGAUCAUGCGCCCUUGGCAGCUGGUAUGUUUGU [7.aB] | 0.0907 | – | 0.504 | – | 0.684 |
| GUAAUGAUAAGAAGGAGCGUCGAAAAUGGGUAAACAUGAGGAUCACCCAUGUAAAGGGAACGACAGGUAGGUCGCUUAUUAUUAC [AstromonsSSArgB#21] | 0.127 | 0.207 | 0.356 | 0.203 | 0.21 |
| GUACAUGAGGAUCACCCAUGUAUAGUUGAAGGAGCGACCAGAGGGUCAGGUAGGUCGCAGCACAUGAGGUAAGCCCGUGUAUGCU [#1 Exclusion - Arginine A Attempt #19 (Inspired by Pi)] | 0.0307 | 0.0506 | 0.0591 | 0.0351 | 0.032 |
| GUACGAGUUGAAUGUGAGACUGGCGUGGAAGGAGCGCACGGAGGUGCAGGUAGGUCGCCACAUGAGGAUCACCCAUGUCGGCUAG [XARG-A 23] | 0.0221 | 0.0232 | 0.0273 | 0.029 | 0.0259 |
| GUAGCGACGGCGGCCGCCACUCGCACGUGAGGGUAGACCAACCUUCACAUGAGGAUCACCCAUGUGAGGACCGGGCUGUCGCUAC [#15 Exclusion Tryptophan B] | 0.017 | 0.0238 | 0.0304 | 0.0254 | 0.0464 |
| GUAUACAUGAGGAUCACCCAUGUACCAGAAGGAGCGCUGGAAACAGCAGGUAGGUCGCUGGUAGGUCCUCUAUCUAGACGUUCGG [EAA NP+V+V2 #4] | 0.0499 | 0.168 | 0.191 | 0.201 | 0.139 |
| GUAUACAUGAGGAUCACCCAUGUACCAGAAGGAGCGCUGGAAACAGCAGGUAGGUCGCUGGUAGGUCCUCUAUCUAGACGUUCUA [EAA NP+V+V2 #5] | 0.0281 | 0.176 | 0.214 | 0.195 | 0.079 |
| GUAUCUAUGUGAAAUAGAUAUAUAACUGAAGGAGCGUCAUUAAGGACAGGUAGGUCGCAGAGCACCUGAGGAUCACCCAGGUAGG [Arg A SS s1] | 0.027 | 0.0257 | 0.027 | 0.0316 | 0.0272 |
| GUAUGAGUUGACUGUGAGACUGGCGUGGAAGGAGCGCACGGAGGUGCAGGUAGGUCGCCACAUGAGGAUCACCCAUGUCAGGCCG [Ceedtila] | 0.0324 | 0.038 | 0.0564 | 0.111 | 0.053 |
| GUAUGGAAACAUACUAUGGUAUCGUGAGAUACCAGUACAGAAAUGUACCCUUGGCAGCUCGCGCAUACAUGAGGAUCACCCAUGU [Ex Theophylline A 10] | 0.0164 | – | 0.025 | – | 0.0195 |
| GUAUUAAGAAAACUUGAUACAGUGGGUGAACGAGGACCGGUACGGCCGCCACUCGGACAUGAGGAUCACCCAUGUCCAUGUGAAA [AstrosExyTryA#11] | 0.0174 | 0.0191 | 0.0186 | 0.0172 | 0.0377 |
| GUCACACAGUAGGAUACCAGCGUGGCUUAUCCCUGAUCGUACAUGAGGAUCACCCAUGUCCGCCCUUGGCAGCCUCCUGCUCGGA [theeternabot_exclusion_MS2_Theo_B_33] | 0.0124 | – | 0.0177 | – | 0.0119 |
| GUCGCUGAGGGAAGGAGCGUGAAGACAUGAGGAUCACCCAUGUAGAGGCGCCGAAGGCGUUCGCAGGUAGGUCGCCCUCAGUGAA [#1 Same State - Arginine B Attempt #25 (HarryS)] | 0.0124 | 0.0141 | 0.0221 | 0.0161 | 0.0151 |
| GUCUCUGGGAGAAGGAGCGUGAAGACAUGAGGAUCACCCAUGUAGAGGCGCCGACGGCGUUCGCAGGUAGGUCGCUCCCAGAGAC [#1 Same State - Arginine B Attempt #18 (HarryS)] | 0.0189 | 0.0239 | 0.0445 | 0.11 | 0.014 |
| GUGAGGUUUGAUGAUACCAGAUGUGGUGGGAACAUGAGGAUCACCCAUGUUGUGAAACAGGUCCCUUGGCAGCAUGAGAGAGCUU [TheoB-ms2@32] | 0.0305 | – | 0.0893 | – | 0.0527 |

Reference: the supplement of paper PMC9170038
